# Assay results from paper PMC1373645, “Lactate production yield from engineered yeasts is dependent from the host background, the lactate dehydrogenase source and the lactate export” (Microbial Cell Factories, 2006).
# B1: L. plantarum LDH (LpLDH, plLDH) (Lactiplantibacillus plantarum WCFS1; D94G) (protein)
# chain: MSSMPNHQKVVLVGDGAVGSSYAFAMAQQGIAEEFVIVDVVKDRTKGDALDLEDAQAFTAPKKIYSGEYSDCKDADLVVITAGAPQKPGESRLGLVNKNLNILSSIVKPVVDSGFDGIFLVAANPVDILTYATWKFSGFPKDRVIGSGTSLDSSRLRVALGKQFNVDPRSVDAYIMGEHGDSEFAAYSTATIGTRPVRDVAKEQGVSDEDLAKLEDGVRNKAYDIINLKGATFYGIGTALMRISKAILRDENAVLPVGAYMDGQYGLNDIYIGTPAVIGGTGLKQIIESPLSADELKKMQDSAATLKKVLNDGLAELENK
# notes: full length, TTG start changed to ATG, untagged, expressed in S. cerevisiae GRF18U; crude cell extract; homotetramer
# Substrate: CC(=O)C(=O)O
# Assay: cells, lysate or membranes
# Format: biochemical, Lactiplantibacillus plantarum
# Conditions: NADH, acetate buffer pH 5.6, 25 °C, no fructose 1,6-diphosphate, Table 2 prints 1,50
protein,measurement,value
B1,Km,1010 µM
